B1: DNA-binding transcriptional repressor Mlc (Escherichia coli (strain K12)), P50456 (parent)
chain: MVAENQPGHIDQIKQTNAGAVYRLIDQLGPVSRIDLSRLAQLAPASITKIVREMLEAHLVQELEIKEAGNRGRPAVGLVVETEAWHYLSLRISRGEIFLALRDLSSKLVVEESQELALKDDLPLLDRIISHIDQFFIRHQKKLERLTSIAITLPGIIDTENGIVHRMPFYEDVKEMPLGEALEQHTGVPVYIQHDISAWTMAEALFGASRGARDVIQVVIDHNVGAGVITDGHLLHAGSSSLVEIGHTQVDPYGKRCYCGNHGCLETIASVDSILELAQLRLNQSMSSMLHGQPLTVDSLCQAALRGDLLAKDIITGVGAHVGRILAIMVNLFNPQKILIGSPLSKAADILFPVISDSIRQQALPAYSQHISVESTQFSNQGTMAGAALVKDAMYNGSLLIRLLQG
partner: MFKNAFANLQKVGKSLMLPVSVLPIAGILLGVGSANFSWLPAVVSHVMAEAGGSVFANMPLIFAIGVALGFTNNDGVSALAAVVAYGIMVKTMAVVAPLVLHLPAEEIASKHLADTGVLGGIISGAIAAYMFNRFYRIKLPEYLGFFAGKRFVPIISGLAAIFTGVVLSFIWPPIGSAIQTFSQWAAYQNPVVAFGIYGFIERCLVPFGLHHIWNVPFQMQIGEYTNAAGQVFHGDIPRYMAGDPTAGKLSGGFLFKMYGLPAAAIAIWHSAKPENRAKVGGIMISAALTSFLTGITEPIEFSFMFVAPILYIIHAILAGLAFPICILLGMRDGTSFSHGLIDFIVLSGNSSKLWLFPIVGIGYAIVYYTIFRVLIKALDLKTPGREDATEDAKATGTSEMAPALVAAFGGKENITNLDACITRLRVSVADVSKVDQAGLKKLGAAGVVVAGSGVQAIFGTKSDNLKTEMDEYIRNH

Variants of: B1
Settings: with ptgcb_ecoli ptsG

Row | Variant | effect of a mutation on the interaction
1 | G406A | decreasing interaction strength

From IntAct's records for PubMed 18067539
